Experimental data taken from the supplement of paper PMC9112550, “Optimization of the antimicrobial peptide Bac7 by deep mutational scanning” (BMC Biology, 2022).

test system: Escherichia coli TOP10; assay: shrunken log2 fold change of peptide-encoding DNA abundance (4.5 h post-induction vs induction); higher = less antimicrobial activity (less host growth inhibition); details: time post-induction: 4.5 h; library: site-saturation at positions 5, 18, 19, 20
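Note: peptides expressed intracellularly from a pBAD plasmid library in pooled LB shake-flask culture, induced with 0.3% L-arabinose, DNA abundance read by NGS, three biological replicates, DESeq2 with apeglm shrinkage.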

Compared with RRIRSRPPRLPRPRPRPGVGPRP, RRIRSRPPRLPRPRPRPYDMPRP is lower in “shrunken log2 fold change” value: 0.617 for the first, -0.122 for the second.

RRIRLRPPRLPRPRPRPEMGPRP and RRIRLRPPRLPRPRPRPMALPRP are within 0.2 log units of each other in “shrunken log2 fold change” value: 0.144 for the first, -0.0125 for the second.

RRIRQRPPRLPRPRPRPVIGPRP and RRIRYRPPRLPRPRPRPNTWPRP are within 0.2 log units of each other in “shrunken log2 fold change” value: -0.0941 for the first, -0.204 for the second.

First: RRIRCRPPRLPRPRPRPRANPRP
Second: RRIRCRPPRLPRPRPRPQWTPRP
The “shrunken log2 fold change” value of the first is higher: 0.255 for the first, -0.205 for the second.

Compared with RRIRTRPPRLPRPRPRPFTAPRP, RRIRFRPPRLPRPRPRPWAAPRP is higher in “shrunken log2 fold change” value: -0.473 for the first, 0.385 for the second.

RRIRQRPPRLPRPRPRPSCDPRP and RRIRIRPPRLPRPRPRPRVYPRP are within 0.2 log units of each other in “shrunken log2 fold change” value: 0.0694 for the first, 0.00283 for the second.

Going from RRIRWRPPRLPRPRPRPSYCPRP to RRIRRRPPRLPRPRPRPSTYPRP, the “shrunken log2 fold change” value falls from 0.366 to -0.418.

Compared with RRIRQRPPRLPRPRPRPEFMPRP, RRIRKRPPRLPRPRPRPRHPPRP is higher in “shrunken log2 fold change” value: -0.0743 for the first, 0.412 for the second.

Compared with RRIRWRPPRLPRPRPRPTKPPRP, RRIRTRPPRLPRPRPRPRNLPRP is lower in “shrunken log2 fold change” value: 0.184 for the first, -0.218 for the second.

Going from RRIRSRPPRLPRPRPRPNNSPRP to RRIRQRPPRLPRPRPRPRLIPRP, the “shrunken log2 fold change” value rises from -0.724 to -0.076.

Compared with RRIRKRPPRLPRPRPRPMHMPRP, RRIRRRPPRLPRPRPRPLTWPRP is higher in “shrunken log2 fold change” value: -0.331 for the first, 0.845 for the second.

Compared with RRIRWRPPRLPRPRPRPCNHPRP, RRIRDRPPRLPRPRPRPEGTPRP is higher in “shrunken log2 fold change” value: -0.427 for the first, -0.042 for the second.

RRIRERPPRLPRPRPRPTCKPRP and RRIRSRPPRLPRPRPRPEKTPRP are within 0.2 log units of each other in “shrunken log2 fold change” value: -0.0222 for the first, 0.125 for the second.

First: RRIRWRPPRLPRPRPRPNDTPRP
Second: RRIRLRPPRLPRPRPRPEPIPRP
The “shrunken log2 fold change” value of the first is lower: -0.268 for the first, 0.0321 for the second.

First: RRIRFRPPRLPRPRPRPMRAPRP
Second: RRIRLRPPRLPRPRPRPSSNPRP
The “shrunken log2 fold change” value of the first is higher: 1.02 for the first, -0.211 for the second.

Compared with RRIRSRPPRLPRPRPRPISAPRP, RRIRERPPRLPRPRPRPDWVPRP is higher in “shrunken log2 fold change” value: -0.256 for the first, 0.0322 for the second.

Going from RRIRDRPPRLPRPRPRPGWIPRP to RRIRHRPPRLPRPRPRPYKKPRP, the “shrunken log2 fold change” value falls from 0.19 to -0.0963.

RRIRHRPPRLPRPRPRPKDLPRP and RRIRDRPPRLPRPRPRPGINPRP are within 0.2 log units of each other in “shrunken log2 fold change” value: -0.0584 for the first, 0.0194 for the second.

RRIRWRPPRLPRPRPRPYWHPRP and RRIRYRPPRLPRPRPRPYTKPRP are within 0.2 log units of each other in “shrunken log2 fold change” value: -0.377 for the first, -0.351 for the second.

Compared with RRIRCRPPRLPRPRPRPHTRPRP, RRIRKRPPRLPRPRPRPANMPRP is higher in “shrunken log2 fold change” value: -0.372 for the first, -0.167 for the second.

Going from RRIRERPPRLPRPRPRPYMQPRP to RRIRERPPRLPRPRPRPEFKPRP, the “shrunken log2 fold change” value rises from -0.326 to 0.114.

Going from RRIRDRPPRLPRPRPRPIAMPRP to RRIRWRPPRLPRPRPRPAVMPRP, the “shrunken log2 fold change” value falls from 0.384 to 0.0971.

RRIRNRPPRLPRPRPRPHQLPRP and RRIRIRPPRLPRPRPRPQQLPRP are within 0.2 log units of each other in “shrunken log2 fold change” value: -0.0583 for the first, -0.0183 for the second.

RRIRARPPRLPRPRPRPFCDPRP and RRIRTRPPRLPRPRPRPEDHPRP are within 0.2 log units of each other in “shrunken log2 fold change” value: 0.0183 for the first, -0.0554 for the second.

RRIRYRPPRLPRPRPRPKGPPRP and RRIRFRPPRLPRPRPRPGMCPRP are within 0.2 log units of each other in “shrunken log2 fold change” value: -0.0132 for the first, -0.0231 for the second.

First: RRIRGRPPRLPRPRPRPFVAPRP
Second: RRIRWRPPRLPRPRPRPKGKPRP
The “shrunken log2 fold change” value of the first is higher: 0.751 for the first, -0.00191 for the second.

Going from RRIRTRPPRLPRPRPRPDEKPRP to RRIRTRPPRLPRPRPRPKYPPRP, the “shrunken log2 fold change” value falls from 0.0325 to -0.252.

Compared with RRIRSRPPRLPRPRPRPRPYPRP, RRIRQRPPRLPRPRPRPGAQPRP is higher in “shrunken log2 fold change” value: -0.244 for the first, 0.528 for the second.

First: RRIRSRPPRLPRPRPRPMMMPRP
Second: RRIRQRPPRLPRPRPRPNEVPRP
The “shrunken log2 fold change” value of the first is lower: -0.83 for the first, -0.00511 for the second.

Going from RRIRRRPPRLPRPRPRPSGKPRP to RRIRKRPPRLPRPRPRPDKYPRP, the “shrunken log2 fold change” value falls from 0.845 to -0.309.

RRIRIRPPRLPRPRPRPEDSPRP and RRIRVRPPRLPRPRPRPHELPRP are within 0.2 log units of each other in “shrunken log2 fold change” value: -0.0125 for the first, 0.118 for the second.

Compared with RRIRRRPPRLPRPRPRPAARPRP, RRIRTRPPRLPRPRPRPRTNPRP is lower in “shrunken log2 fold change” value: 0.287 for the first, -0.192 for the second.

Going from RRIRFRPPRLPRPRPRPHTVPRP to RRIRTRPPRLPRPRPRPSFQPRP, the “shrunken log2 fold change” value falls from 0.0365 to -0.427.

Going from RRIRARPPRLPRPRPRPLAAPRP to RRIRMRPPRLPRPRPRPLGWPRP, the “shrunken log2 fold change” value rises from 0.942 to 1.32.

RRIRARPPRLPRPRPRPISQPRP and RRIRPRPPRLPRPRPRPHGPPRP are within 0.2 log units of each other in “shrunken log2 fold change” value: 0.177 for the first, 0.0292 for the second.

RRIRWRPPRLPRPRPRPHSEPRP and RRIRERPPRLPRPRPRPKVIPRP are within 0.2 log units of each other in “shrunken log2 fold change” value: -0.162 for the first, -0.0206 for the second.

Compared with RRIRTRPPRLPRPRPRPGMFPRP, RRIRNRPPRLPRPRPRPNECPRP is higher in “shrunken log2 fold change” value: -0.397 for the first, -0.124 for the second.

With RRIRYRPPRLPRPRPRPEIIPRP the “shrunken log2 fold change” value was -0.0841.
